Assay results taken from patent publication US20130028888A1 (AERES BIOMEDICAL, published 2013).
Where a chain is given by its changes, count along the chain named.

B1: chimeric HB22.7 antibody chHB227 (chH + chL) (antibody, human IgG1, V domains shown)
VH: QVQLKESGPGLVAPSQSLSITCTVSGFSLSDYGVNWVRQIPGKGLEWLGIIWGDGRTDYNSALKSRLNISKDNSKSQVFLKMNSLKADDTARYYCARAPGNRAMEYWGQGTSVTVS
VL: SIVMTQTPKFLLVSAGDRITLTCKASQSVTNDVAWYQQKPGQSPKLLIYYASNRYTGVPDRFTGSGYGTDFTFTISTVQAEDLAVYFCQQDYRSPWTFGGGTKLEI
notes: Mouse HB22.7 variable regions on human IgG1 and kappa constant regions (vectors pG1D20, pKN10); Transient COS-7 supernatant; also called CH+CK; fully chimeric antibody
B2: parental mouse monoclonal anti-CD22 antibody HB22.7 (antibody, V domains shown)
VH: B1 VH
VL: B1 VL
notes: Mouse hybridoma antibody (ATCC HB11347); Labelled with Alexa-fluor 488 or 647 in some cell assays; also called murine HB22.7; mouse HB22.7
B3: HB227RHC heavy chain + chimeric HB22.7 light chain (chL) (antibody, human IgG1, V domains shown)
VH: QVQLQESGPALVKPTQTLTLTCTFSGFSLSDYGVNWIRQPPGKALEWLGIIWGDGRTDYNSALKSRLSISKDNSKNQVVLRMTNVDPVDTATYFCARAPGNRAMEYWGQGTVVTVSS
VL: B1 VL
notes: Human IgG1/kappa constants; COS-7 supernatant; also called RHC+chL
B4: HB227RHF heavy chain + chimeric HB22.7 light chain (chL) (antibody, human IgG1, V domains shown)
VH: B3 VH with F24V
VL: B1 VL
notes: Human IgG1/kappa constants; COS-7 supernatant; also called HB227RHF+chL; RHF+chL
B5: humanized antibody HB227RHF + HB227RKC (antibody, human IgG1, V domains shown)
VH: B3 VH with F24V
VL: DIVMTQSPSSLSASVGDRVTITCKASQSVTNDVAWYQQKPGKAPKLLIYYASNRYTGVPDRFSGSGYGTDFTLTISSLQPEDFATYFCQQDYRSPWTFGGGTKVEIKR
notes: Human IgG1/kappa constants; COS-7 supernatant; also called RHF+RKC; humanized (RHF+RKC) antibody

Tests used:
[1] = molecular target: T1, human CD22 expressed on the cell surface (human, UniProt P20273 20-847); assay: cell ELISA on BHK cells expressing human CD22, OD 655 nm
T1 construct: whole, on cells; One entry covers all cell-surface formats (BHK-CD22, CHO, COS, Daudi, human B cells); also called hCD22; BHK-CD22

[2] = molecular target: T1, human CD22 expressed on the cell surface; assay: cell ELISA on BHK cells expressing human CD22, COS-7 supernatant, OD 655 nm
[3] = molecular target: T1, human CD22 expressed on the cell surface; assay: cell ELISA on BHK cells expressing human CD22, goat anti-mouse Ig-HRP, OD 450 nm
Text: The BHK-CD22 binding assay was used to test the binding activity of the chHB227 antibody in the transiently transformed COS 7 culture supernatants. A goat anti-human Ig-HRP conjugate (Sigma Chemicals) was used to detect binding of chHB22.7 mAb while a goat anti-mouse Ig-HRP conjugate (Southern Biotechnology) was used to detect binding of the parental mouse HB22.7 mAb. The bound HRP conjugates were exposed to the substrate o-phenyldiamine (OPD) and the resulting products detected at 450 nm.

[4] = molecular target: T1, human CD22 expressed on the cell surface; assay: BHK-CD22 cell ELISA

| Binder | EC50 (read off the curve) [2] | also measured |
| --- | --- | --- |
| B1 | ~0.1 µg/mL | EC50 (read off the curve) [1]: ~0.3 µg/mL |
| B2 |  | EC50 (read off the curve) [3]: ~0.08 µg/mL |
| B3 |  | fold binding relative to chimeric light chain with HB227RHB [4]: ~2 fold |
| B4 | ~0.1 µg/mL |  |
| B5 | ~0.2 µg/mL |  |
